Test results taken from article PMC5680806 (mAbs, 2017).

B1: Balb-1 (antibody, V domains shown)
VH: QAYLQQSGPELKKPGETVKISCKASGYTFTNYGMNWVKQAPGKGLKWMGWINTNTGEPTYAEEFKGRFAFSLETSASTAYLQINNLKNEDTATYFCASNYYWYFDVWGAGTTVTVSS
VL: DVVLTQSPATLSVTPGDSVSLSCRASQSISNNLHWYQQKSHESPRLLIKYASQSISGIPSRFSGSGSGTDFTLSINSVETEDFGMYFCQQSNSWPLTFGAGTKLELK
B2: SJL-564-1 (antibody, V domains shown)
VH: QAYLQQSGAELARPGASVKLSCKASGYTFTSYGISWVKQRTGQGLEWIGEIYPRSGNTYYNEKFKGKATLTADKSSSTAYMELRSLTSEDSAVYFCARSTYSNYVYAMDYWGQGTSVTVSS
VL: DVVLTQTPLSLPVSLGDQASISCRSSQSIVHSNGNTYLEWYLQKPGQSPKLLIYKVSNRFSGVPDRFSGSGSGTDFTLKISRVEAEDLGVYYCFQGSHVPYTFGGGTKLEIK
B3: SJL-565-1 (antibody, V domains shown)
VH: QAYLQQSGPELVKPGASVKISCKASGYTFTDYYINWVKQRPGQGLEWIGWIYPGSGNTKYNEKFKGKATLTVDTSSSTAYMQLSSLTSEDSAVYFCARSVYDYDEDWGQGTRVTVSA
VL: DIVMTQSQKFMSTSVGDRVSVTCKASQNVGTNVAWYQQKPGQSPKALIYSASYRYSGVPDRFTGSGSGTDFTLTISNVQSEDLAEYFCQQYNSYPFTFGSGTKLEIK
B4: SJL-565-3 (antibody, V domains shown)
VH: QAYLQQSGPELVKPGASVKISCKASGYTFTDYYINWVKQRPGQGLEWIGWIYPGSGNTKYNEKFKGKATLTVDTSSSTAYMHVSSLTSEDSAVYFCSSSRYDYDEDWGQGTLVTVSA
VL: DIVMTQSQKFMSTSVGDRVSVTCKASQNVGTNVAWYQQKPGQSPKALIYSASYRYSGVPDRFTGSGSGTDFTLTISNVQSEDLAEYFCQQYNSYPFTFGSGTKLEIK

Molecular target: recombinant programmed cell death protein 1 (PD-1) (Homo sapiens, UniProt Q15116)
Sequence (Q15116 25-170): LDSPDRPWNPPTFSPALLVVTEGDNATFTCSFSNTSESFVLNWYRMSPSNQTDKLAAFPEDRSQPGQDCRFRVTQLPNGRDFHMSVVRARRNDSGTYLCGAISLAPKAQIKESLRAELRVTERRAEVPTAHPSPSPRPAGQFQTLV

Row | Binder | binding result
1 | B1 | binds
2 | B2 | binds
3 | B3 | binds
4 | B4 | binds
